Source: patent US20260265385A1, “CD122 BINDING AGENTS AND METHOD OF USING SAME” (AnaptysBio, Inc., priority 2022, published 2026)

Tests used:
[1] = target: human IL-2Rβ (CD122), full-length, on cells (human) (UniProt P14784); test: flow cytometry competition: antibody titrated against recombinant IL-15 (2 nM) binding to HEK293 cells expressing human IL-2Rβ and IL-2Rγ
[2] = target: human IL-2Rβ (CD122), full-length, on cells (human) (UniProt P14784); test: flow cytometry competition: antibody titrated against recombinant IL-2 (5 nM) binding to HEK293 cells expressing human IL-2Rβ and IL-2Rγ

Sequence of human IL-2Rβ (CD122), full-length, on cells (human) (P14784 27-551): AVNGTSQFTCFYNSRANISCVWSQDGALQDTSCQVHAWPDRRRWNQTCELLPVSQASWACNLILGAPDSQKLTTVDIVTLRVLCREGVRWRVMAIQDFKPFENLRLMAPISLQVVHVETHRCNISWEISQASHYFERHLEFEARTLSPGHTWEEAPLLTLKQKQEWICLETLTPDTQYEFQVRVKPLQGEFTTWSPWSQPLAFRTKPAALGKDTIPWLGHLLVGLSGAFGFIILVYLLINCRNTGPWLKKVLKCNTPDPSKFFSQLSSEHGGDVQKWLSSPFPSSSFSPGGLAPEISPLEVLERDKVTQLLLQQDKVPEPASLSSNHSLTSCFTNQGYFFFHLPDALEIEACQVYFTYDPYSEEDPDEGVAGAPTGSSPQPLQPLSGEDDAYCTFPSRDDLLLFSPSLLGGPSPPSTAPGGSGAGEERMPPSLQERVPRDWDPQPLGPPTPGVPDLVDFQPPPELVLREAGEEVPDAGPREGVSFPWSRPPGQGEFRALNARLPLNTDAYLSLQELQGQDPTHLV

B1: APE14773.01 (anti-CD122 control ref ABC2) (antibody, from another filing, V domains shown)
VH: EVKLVESGGGLVQPGGSLRLSCATSGFTFSDFYMEWVRQPPGKRLEWIAASRNKANDYTTEYSASVKGRFIVSRDTSQSILYLQMNALRAEDTAIYYCARSYYRYDGMDYWGQGTSVTVSS
VL: QVVLTQSPVIMSASPGEKVTMTCSAISSVSYMYWYQQKPGSSPRLLIYDTSNLVSGVPVRFSGSGSGTSYSLTISRMEAEDAATYYCQQWNTYPYTFGGGTKLEIK
- IC50 (read off the curve) [1]: 0.9 nM
- IC50 (read off the curve) [2]: 1 nM
